Reference: article PMC3506534, “LL-37 Induces Polymerization and Bundling of Actin and Affects Actin Structure” (PLoS ONE, 2012)
Like-named read-outs stand apart in the source and are kept apart here. No end group written: not given here.

Columns and labels:
[1] = tested on: LL-37-induced Mg-F-actin bundles; test: Kinetics of dissociation of LL-37-induced Mg-F-actin bundles (light scattering); format: biochemical, rabbit; conditions: 200 mM NaCl; 4 µM MgF-actin bundled by 9 µM LL-37; 450 nm
Protocol: Bundling of MgF-actin was followed by increase in light scattering [20]. The time course of light scattering changes was also measured in a PTI spectrofluorometer, with both excitation and emission wavelengths adjusted to 450 nm. All fluorescence and light scattering measurements were carried out at 22°C.
This was followed by the addition of 6 µM DNase1, cofilin, or 200 mM NaCl. Bundling and dissociation was monitored as a change in light scattering.
This was followed by the addition of 6 µM DNase1, 6 µM cofilin, or 200 mM NaCl (thick arrow). Bundling and dissociation were followed as an increase and decrease in light scattering, respectively, measured at 450 nm. Presented data are representative of three independent experiments.

Mg-F-actin [2] = target: T1, Mg-F-actin (Oryctolagus cuniculus, UniProt P68135); test: Extent of Mg-F-actin bundling by low speed sedimentation; format: biochemical, rabbit; conditions: for EC50: read-out: concentration for half maximal bundling
T1 construct: CaATP-G-actin was prepared from acetone dried powder derived from the back and leg muscles of rabbit by the method of Spudich and Watt; from tissue; host or cells: rabbit back and leg skeletal muscle (acetone dried powder)
Protocol: (§1) CaATP-G-actin was prepared from acetone dried powder derived from the back and leg muscles of rabbit by the method of Spudich and Watt that even without gel filtration yields highly homogeneous actin in purity greater than 90%. CaATP-G-actin was stored in a buffer containing 5 mM TrisHCl, 0.2 mM CaCl2, 0.2 mM ATP, 0.5 mM β-mercaptoethanol, pH 8.0 (CaATP-G-buffer). MgATP-G-actin was obtained by incubating CaATP-G-actin with 0.2 mM EGTA and 0.1 mM MgCl2 at room temperature for 5 min. MgATP-G-actin was diluted for further treatments in MgATP-G-buffer containing 5 mM MOPS, 0.1 mM MgCl2, 0.2 mM EGTA, 0.2 mM ATP and 0.5 mM DTT, pH 7.4. MgF-actin was polymerized from MgATP-G-actin or CaATP-G-actin by 30 min incubation with 2 mM MgCl2 at room temperature. The concentration of unlabeled rabbit skeletal muscle α-G-actin was determined spectrophotometrically using the extinction coefficients E^1% 290 = 11.5 cm^−1. (The optical density of actin was measured in the presence of 0.5 M NaOH, which shifts the maximum of absorbance from 280 nm to 290 nm). Molecular masses of skeletal actin, yeast cofilin, hen-lysozyme and LL-37 were assumed to be 42 kDa, 15.9 kDa, 14.3 kDa and 4.5 kDa respectively.
After addition of polycations, actin samples were centrifuged at 20,800×g at 4°C for 8 min (in an Eppendorf centrifuge). The supernatants were run using SDS-PAGE and analyzed by densitometry using the TINA 2.07d software.
Figure 3 LL-37, scrambled LL-37 and lysozyme induced bundle formation of Mg-F-actin at low and physiological (100 mM NaCl) ionic strength. (A) Kinetics of LL-37-induced bundle formation: LL-37 (2–8 µM) was added to MgF-actin (2 µM) and bundle formation was followed as an increase in light scattering at 350 nm. Presented data are representative of three independent experiments. (B) Extent of LL-37 and lysozyme induced bundle formation: LL-37 or lysozyme (0.5–9 µM) were added to Mg-F-actin (4 µM). Samples were centrifuged at 20,800×g, for 8 min and the supernatants were analyzed by SDS-PAGE and densitometry. (C) Extent of LL-37 and scrambled LL-37 induced bundle formation: LL-37 or scrambled LL-37 (2–14 µM) were added to MgF-actin (4 µM) and bundle formation was measured as in (B). The presented data are mean and standard deviation of three independent experiments in (B) and (C).

[3] = gelsolin; ref [30]; cited from earlier work
Text: (§2) Bundles of actin filaments are major contributors to the viscosity of sputum in the airways of cystic fibrosis patients. LL-37, which also has been found in the sputum, may contribute to actin bundle formation. […] Here, we studied the effect of cofilin [39] and DNase1 on the stability of LL-37-induced bundles.

[4] = tested on: LL-37-induced Mg-F-actin bundles; conditions: gelsolin; ref [38]; cited from earlier work
Text: as §2

[5] = gelsolin; ref [6]; cited from earlier work
Text: LL-37-induced actin polymerization and bundling was chosen as the subject of this study. LL-37 is a 37 amino acid polycationic peptide with 6 net positive charges and is the only known member in human of the cathelicidin family of host defense peptides. In addition to its antimicrobial activity, the host defense activities of LL-37 include chemoattraction, cytokine release, tissue regeneration, inhibition of immunostimulation and apoptosis,[26]. […] There, it increases the F-actin content in the cyt ...

Mg-F-actin [6] = target: T1, Mg-F-actin; conditions: lysozyme; ref [20]; cited from earlier work
Protocol: Bundling kinetics of MgF-actin by LL-37, lysozyme and scrambled LL-37 were studied by increase in light scattering and the extent of bundling was determined using low speed centrifugation. The bundling of MgF-actin by LL-37 is also shown by electron microscopy (Figure S1). Mg-F-actin bundle formation was very fast both with LL-37 (Figure 3A) and lysozyme. The extent of bundling was dependent on the concentration and the nature of the polycation used (Figure 3B). At low ionic strength more than 50% of Mg-F-actin was bundled upon addition of lysozyme (1 µM) to Mg-F-actin (4 µM). A similar ...

MgATP-G-actin [7] = target: T2, MgATP-G-actin (Oryctolagus cuniculus, UniProt P68135); test: Effect on MgCl2- or NaCl-induced polymerization of MgATP-G-actin (pyrene fluorescence); format: biochemical, rabbit; conditions: 4 µM LL-37 or lysozyme added simultaneously with salt; 2 µM MgATP-G-actin, 10% pyrene labeled; 22°C
T2 construct: CaATP-G-actin was prepared from acetone dried powder derived from the back and leg muscles of rabbit by the method of Spudich and Watt; from tissue; host or cells: rabbit back and leg skeletal muscle (acetone dried powder)
Protocol: as §1, with “MgF-actin was polymerized from MgATP-G-actin or CaATP-G-actin by 30 min incubation with 2 mM MgCl2 at room temperature.” left out, “Molecular masses of skeletal actin, yeast cofilin, hen-lysozyme and LL-37 were assumed to be 42 kDa, 15.9 kDa, 14.3 kDa and 4.5 kDa respectively.” left out
(§3) Labeling of Mg-F-actin at Cys-374 with pyrene maleimide was carried out according to Kouyama and Mihashi with some modifications. […] The concentration of modified actin was determined by the procedure of Bradford using unmodified actin as a standard. The extent of labeling, which was measured by using pyrene extinction coefficient E344 nm = 22000 cm^−1M^−1, was ∼100%. […]

MgATP-G-actin [8] = target: T2, MgATP-G-actin; test: Polymerization of MgATP-G-actin at low ionic strength (pyrene fluorescence); format: biochemical, rabbit; conditions: 2 µM MgATP-G-actin, 10% pyrene labeled; low ionic strength MgATP-G-buffer pH 7.4; 22°C; representative of three independent experiments
Protocol: as §1, with “MgF-actin was polymerized from MgATP-G-actin or CaATP-G-actin by 30 min incubation with 2 mM MgCl2 at room temperature.” left out, “Molecular masses of skeletal actin, yeast cofilin, hen-lysozyme and LL-37 were assumed to be 42 kDa, 15.9 kDa, 14.3 kDa and 4.5 kDa respectively.” left out
as §3

Mg-F-actin [9] = target: T1, Mg-F-actin; test: NaCl concentration dependent stability of Mg-F-actin bundles (low speed sedimentation); format: biochemical, rabbit; conditions: 4 µM MgF-actin bundled by 6 µM lysozyme or 10 µM sLL-37; 10 min room temperature
Protocol: as §1, with “MgF-actin was polymerized from MgATP-G-actin or CaATP-G-actin by 30 min incubation with 2 mM MgCl2 at room temperature.” left out, “Molecular masses of skeletal actin, yeast cofilin, hen-lysozyme and LL-37 were assumed to be 42 kDa, 15.9 kDa, 14.3 kDa and 4.5 kDa respectively.” left out
After addition of polycations, actin samples were centrifuged at 20,800×g at 4°C for 8 min (in an Eppendorf centrifuge). The supernatants were run using SDS-PAGE and analyzed by densitometry using the TINA 2.07d software. […]
Figure 4 NaCl concentration dependent bundling of MgF-actin by LL-37, lysozyme and sLL-37. […] The supernatants were analyzed by SDS-PAGE and densitometry. […]

## [Cl-].[Na+] [NaCl]
[1]
  rate and completeness of dissociation: complete and very fast

## GLKLRFEFSKIKGEFLKTPEVRFRDIKLKDNRISVQR [Scrambled LL-37]
Mg-F-actin [2]; sLL-37 10 µM, 4 µM MgF-actin, low ionic strength
  MgF-actin bundled: more than 60%

## Gelsolin
[3]
  effect on sputum viscosity: significantly reduce the viscosity of sputum
[4]
  dissociation of LL-37-induced actin filament bundles: dissociate LL-37-induced actin filament bundles
[5]
  effect on LL-37 antibacterial activity: restore

## lysozyme: Hen lysozyme, antibacterial polycationic protein, 14.3 kDa, from Sigma
Mg-F-actin [6]
  rate of Mg-F-actin bundle formation: very fast
MgATP-G-actin [7]
  effect on polymerization induced by 2 mM MgCl2 or 100 mM NaCl: no inhibitory effect
MgATP-G-actin [8]
  concentration giving polymerization of MgATP-G-actin: 1 µM
Mg-F-actin [9]
  NaCl concentration at which bundle stability was decreased: 50 mM
  NaCl concentration in which bundles completely dissociated: 150 mM
Mg-F-actin [2]; 4 µM Mg-F-actin, low ionic strength
  EC50: 1 µM
Mg-F-actin [2]; 4 µM Mg-F-actin, physiological ionic strength (100 mM NaCl)
  EC50: 6 µM
Mg-F-actin [2]; lysozyme 1 µM, 4 µM Mg-F-actin, low ionic strength, 20,800×g 8 min, SDS-PAGE densitometry, three independent experiments
  Mg-F-actin bundled: more than 50%
